Laboratory results: the supplement of paper PMC7125110
± gives the standard error. Fewer inactive variants are shown than the library holds.

B1: glmS ribozyme (parent)
chain: AUAAAAGCGCCAGAACUACAGAAAUGUAGUUGACGAGGAGGAGGUUUAUCGAAUUUUCGGCGGAUGCCUCCAAA

Legend:
Settings in all cases: with glucosamine-6-phosphate
[1] = variants of: B1; assay: self-cleavage kobs at 40 uM GlcN6P; higher = faster cleavage; RNA array
Outline: (§1)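 Ribozyme variants carrying barcodes were transcribed in situ on sequenced MiSeq chips by E. coli RNA polymerase and tracked at 37 °C with a hybridised Cy3 probe. They were exposed to 40 μM to 10 mM glucosamine-6-phosphate in HEPES/KCl/Mg(OAc)2 buffer. kobs came from exponential decay fits of normalised per-tile medians, and kcat and KM from weighted Michaelis–Menten fits.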

[2] = variants of: B1; assay: self-cleavage kobs at 10000 uM GlcN6P; higher = faster cleavage; RNA array
Outline: as §1

[3] = variants of: B1; assay: self-cleavage kobs at 160 uM GlcN6P; higher = faster cleavage; RNA array
Outline: as §1

[4] = variants of: B1; assay: self-cleavage kobs at 640 uM GlcN6P; higher = faster cleavage; RNA array
Outline: as §1

[5] = variants of: B1; assay: self-cleavage kobs at 2500 uM GlcN6P; higher = faster cleavage; RNA array
Outline: as §1

Row | Variant | self-cleavage kobs at 40 uM GlcN6P [1] [s⁻¹] | self-cleavage kobs at 10000 uM GlcN6P [2] [s⁻¹] | self-cleavage kobs at 160 uM GlcN6P [3] [s⁻¹] | self-cleavage kobs at 640 uM GlcN6P [4] [s⁻¹] | self-cleavage kobs at 2500 uM GlcN6P [5] [s⁻¹]
1 | AUAAAAGCGCCAGAACUACAGAAAUGUAGUUGACGAGGCGGAGGUUUAUCGAAUUUUCGGCGGAUGCGUCCAAA [A39C C68G] | < 1e-05 | < 1e-05 |  |  | 
2 | AUAAAAGCGCCAGAACUACAGAAAUGUAGUUGACGAGGCGGGGGUUUAUCGAAUUUUCGGCGGCUGGCUCCAAA [A39C A42G A64C C67G] | < 1e-05 | < 1e-05 |  |  | 
3 | AUAAAAGCGCCAGAACUACAGAAAUGUAGUUGACGAGGCGGAGGUUUAUCGAAUUUUCCGCGGAUGCCUCCAAA [A39C G59C] | < 1e-05 | < 1e-05 | < 1e-05 | < 1e-05 | < 1e-05
4 | AUAAAAGCGCCAGAACUACAGAAAUGUAGUUGACGAGUAGGAGGUUUAUCCAAUUUUCGGCGGAUGCCUCCAAA [G38U G51C] | < 1e-05 |  |  | < 1e-05 | < 1e-05
5 | AUAAAAGCGCCAGAACUACAGAAAUGUAGUUGACGAGUAGGAGGGUUAUCGAAUUUUCGGCGGAUGCCUCCAAA [G38U U45G] | < 1e-05 |  |  | < 1e-05 | 
6 | AUAAAAGCGCCAGAACUACAGAAAUGUAGUUGACGAGUAGGAGGUUUAUCGAAUUUUCGGAGGAUGUCUCCAAA [G38U C61A C67U] | 8.86e-05 ± 3e-05 | 8.02e-05 ± 2.6e-05 |  |  | 
7 | AUAAAAGCGCCAGAACUACAGAAAUGUAGUUGACGAGUAUGAGGUUUAUCGAAUUUUCGGCGGAUGCCUCCAAA [G38U G40U] | < 1e-05 | < 1e-05 |  |  | 
8 | AUAAAAGCGCCAGAACUACAGAAAUGUAGUUGACGAGUAGCAGGUUUAUCGAAUUUUCGGCGGAUGCCUCCAAA [G38U G41C] | < 1e-05 | < 1e-05 | < 1e-05 | < 1e-05 | < 1e-05
9 | AUAAAAGCGCCAGAACUACAGAAAUGUAGUUGACGAGUAGGAGGUUUAUCGUAUUUGCGGCGGGUGCCUCCAAA [G38U A52U U57G A64G] | < 1e-05 | < 1e-05 |  |  | 
10 | AUAAAAGCGCCAGAACUACAGAAAUGUAGUUGACGAGCAGGAGGUUUAUCGAAUUUUCGGCGGAGGCCUCCAAA [G38C U65G] | < 1e-05 |  | < 1e-05 | < 1e-05 | 
11 | AUAAAAGCGCCAGAACUACAGAAAUGUAGUUGACGAGCAGGAGGUUUAUCGAAUUUUCGGCGGACGCCUCCAAA [G38C U65C] | < 1e-05 | < 1e-05 | < 1e-05 | < 1e-05 | 
12 | AUAAAAGCGCCAGAACUACAGAAAUGUAGUUGACGAGUAGGAGGUUUAUCGAAUUUUCGGCGGAUACCGCCAAA [G38U G66A U69G] | 4.77e-05 ± 2e-05 | 4.02e-05 ± 1.6e-05 |  |  | 
13 | AUAAAAGCGCCAGAACUACAGAAAUGUAGUUGACGAGUAGGAGGUUUAUUCAAUUUUCGGCGGAUGCCACCAAA [G38U C50U G51C U69A] | 8.35e-05 ± 3.9e-05 |  |  |  | 
14 | AUAAAAGCGCCAGAACUACAGAAAUGUAGUUGACGAGCAGGAGGUUUAUCGAAUUCUCGGCGGAUGCCUCCAAA [G38C U56C] | < 1e-05 | < 1e-05 | < 1e-05 |  | < 1e-05
15 | AUAAAAGCGCCAGAACUACAGAAAUGUAGUUGACGAGUAGGCGGUUUAUCGAUUUUUCGGCGGAUGCCUCCAAA [G38U A42C A53U] | < 1e-05 |  |  |  | 
16 | AUAAAAGCGCCAGAACUACAGAAAUGUAGUUGACGAGUAGGAGGUUUAUAGAAUUUUCGGCGGAUGGCUCCAAA [G38U C50A C67G] | 8.67e-05 ± 3.1e-05 | 0.000115 ± 3.2e-05 |  |  | 
17 | AUAAAAGCGCCAGAACUACAGAAAUGUAGUUGACGAGGCGGAGGUUUAUCGAAUUUUCGCCGGAUGCUUCCAAA [A39C G60C C68U] | < 1e-05 |  | < 1e-05 | < 1e-05 | 
18 | AUAAAAGCGCCAGAACUACAGAAAUGUAGUUGACGAGUAGGUGGUUUAACGAAUUUUCGUCGGAUGCCUCCAAA [G38U A42U U49A G60U] | < 1e-05 | < 1e-05 |  |  | 
19 | AUAAAAGCGCCAGAACUACAGAAAUGUAGUUGACGAGUAGGAGGUUUCUCGAAUUUUCGGCGGAUGCCUCGAAA [G38U A48C C71G] | < 1e-05 | < 1e-05 |  |  | 
20 | AUAAAAGCGCCAGAACUACAGAAAUGUAGUUGACGAGGCGGAGGUUUUUCGAAUUUUCUGCGGAUGCCUCCAAA [A39C A48U G59U] | < 1e-05 | < 1e-05 |  |  | 
21 | AUAAAAGCGCCAGAACUACAGAAAUGUAGUUGACGAGUAGGAGGUUUAUCGACUUUUCGGCGGAUGCCUCCAAA [G38U A53C] | < 1e-05 |  | < 1e-05 | < 1e-05 | < 1e-05
22 | AUAAAAGCGCCAGAACUACAGAAAUGUAGUUGACGAGGCGGAGGUUUAUCGAAUUUUCGGAGGAUGCCUCCAAA [A39C C61A] | < 1e-05 | < 1e-05 | < 1e-05 | < 1e-05 | < 1e-05
23 | AUAAAAGCGCCAGAACUACAGAAAUGUAGUUGACGAGUAGGACGUUCAUCGAUUAUUCCGCGGAUGCCUCCAAA [G38U G43C U47C A53U U55A G59C] | < 1e-05 |  |  |  | 
24 | AUAAAAGCGCCAGAACUACAGAAAUGUAGUUGACGAGUAGGAGGUUUAUCGAAGUUUCGGCGGAUGCCUCCAAA [G38U U54G] | < 1e-05 |  |  |  | 
25 | AUAAAAGCGCCAGAACUACAGAAAUGUAGUUGACGAGUAGCAAGUUUAUCGAAUUUUCGGCGGAUGCCUCCAAA [G38U G41C G43A] | < 1e-05 |  |  |  | 
26 | AUAAAAGCGCCAGAACUACAGAAAUGUAGUUGACGAGUAGGAGGUUUAUCGAAUUUUCCGCGGAUGCCUCCAAA [G38U G59C] | < 1e-05 |  |  | < 1e-05 | < 1e-05
27 | AUAAAAGCGCCAGAACUACAGAAAUGUAGUUGACGAGGCGAAGGUUUAUCGAAUUUUCGGCGGAUGCCUCCAAA [A39C G41A] | < 1e-05 | < 1e-05 | < 1e-05 | < 1e-05 | 
28 | AUAAAAGCGCCAGAACUACAGAAAUGUAGUUGACGAGGCGGAGGUUUAUAGAAUUUUCGGCGGAUGCCUCCAAA [A39C C50A] | < 1e-05 | < 1e-05 | < 1e-05 | < 1e-05 | 
